Source: publication PMC6657595, “A DNA-Binding Protein Tunes Septum Placement during Bacillus subtilis Sporulation”
Numbering of substitutions follows the chain as printed.

Legend:
[1] = molecular target: T1, RefZ R102S-His6 R102S (Bacillus subtilis 168) (UniProt O34970); test: EMSA; details: 150 mM KCl, 10 mM Tris-HCl pH 8.0; EMSA 10 nM DNA, 30 min, gel at room temperature; BLI 800 nM protein, 30 C
T1 sequence: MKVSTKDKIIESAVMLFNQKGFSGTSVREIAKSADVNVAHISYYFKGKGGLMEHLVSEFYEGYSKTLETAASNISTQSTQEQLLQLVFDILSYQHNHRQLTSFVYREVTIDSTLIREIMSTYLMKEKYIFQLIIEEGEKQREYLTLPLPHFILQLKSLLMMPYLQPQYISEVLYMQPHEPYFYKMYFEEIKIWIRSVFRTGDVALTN

[2] = molecular target: T2, RefZ R116W-His6 R116W (Bacillus subtilis 168) (UniProt O34970); test: EMSA; details: 150 mM KCl, 10 mM Tris-HCl pH 8.0; EMSA 10 nM DNA, 30 min, gel at room temperature; BLI 800 nM protein, 30 C
T2 sequence: T1 sequence with S102R, R116W

[3] = molecular target: T3, RefZ R102C-His6 R102C (Bacillus subtilis 168) (UniProt O34970); test: EMSA; details: 150 mM KCl, 10 mM Tris-HCl pH 8.0; EMSA 10 nM DNA, 30 min, gel at room temperature; BLI 800 nM protein, 30 C
T3 sequence: T1 sequence with S102C

[4] = molecular target: T4, RefZ E179K-His6 E179K (Bacillus subtilis 168) (UniProt O34970); test: EMSA; details: 150 mM KCl, 10 mM Tris-HCl pH 8.0; EMSA 10 nM DNA, 30 min, gel at room temperature; BLI 800 nM protein, 30 C
T4 sequence: T1 sequence with S102R, E179K

[5] = molecular target: T5, RefZ E117D-His6 E117D (Bacillus subtilis 168) (UniProt O34970); test: EMSA; details: 150 mM KCl, 10 mM Tris-HCl pH 8.0; EMSA 10 nM DNA, 30 min, gel at room temperature; BLI 800 nM protein, 30 C
T5 sequence: T1 sequence with S102R, E117D

[6] = molecular target: T6, RefZ L153R-His6 L153R (Bacillus subtilis 168) (UniProt O34970); test: EMSA; details: 150 mM KCl, 10 mM Tris-HCl pH 8.0; EMSA 10 nM DNA, 30 min, gel at room temperature; BLI 800 nM protein, 30 C
T6 sequence: T1 sequence with S102R, L153R

[7] = molecular target: T7, RefZ E61K-His6 E61K (Bacillus subtilis 168) (UniProt O34970); test: EMSA; details: 150 mM KCl, 10 mM Tris-HCl pH 8.0; EMSA 10 nM DNA, 30 min, gel at room temperature; BLI 800 nM protein, 30 C
T7 sequence: T1 sequence with E61K, S102R

[8] = molecular target: T8, RefZ E53K-His6 E53K (Bacillus subtilis 168) (UniProt O34970); test: EMSA; details: 150 mM KCl, 10 mM Tris-HCl pH 8.0; EMSA 10 nM DNA, 30 min, gel at room temperature; BLI 800 nM protein, 30 C
T8 sequence: T1 sequence with E53K, S102R

[9] = molecular target: T9, RefZ R116S-His6 R116S (Bacillus subtilis 168) (UniProt O34970); test: EMSA; details: 150 mM KCl, 10 mM Tris-HCl pH 8.0; EMSA 10 nM DNA, 30 min, gel at room temperature; BLI 800 nM protein, 30 C
T9 sequence: T1 sequence with S102R, R116S

[10] = molecular target: T10, RefZ E117G-His6 E117G (Bacillus subtilis 168) (UniProt O34970); test: EMSA; details: 150 mM KCl, 10 mM Tris-HCl pH 8.0; EMSA 10 nM DNA, 30 min, gel at room temperature; BLI 800 nM protein, 30 C
T10 sequence: T1 sequence with S102R, E117G

[11] = molecular target: T11, RefZ-His6 (WT) (Bacillus subtilis PY79) (UniProt O34970); test: EMSA; details: 150 mM KCl, 10 mM Tris-HCl pH 8.0; EMSA 10 nM DNA, 30 min, gel at room temperature; BLI 800 nM protein, 30 C
T11 sequence: T1 sequence with S102R

[12] = molecular target: RefZ-His6 (wild-type RefZ) (Bacillus subtilis); test: crystal structure; RefZ-His6 at ~5 mg/ml, dialyzed into 50 mM Tris-HCl pH 8.5, 300 mM KCl with RBM dsDNA added (4:1 RefZ:DNA); hanging-drop vapor diffusion at 16°C; no DNA seen in the crystal; one molecule in the asymmetric unit of a P4(1)2(1)2 lattice; 2.6 Å
RefZ E117G-His6 = molecular target: T12, RefZ E117G-His6 (Bacillus subtilis 168, UniProt O34970 1-207, E117G); test: BLI; within 2-fold of WT, P = 0.025; 150 mM KCl, 10 mM Tris-HCl pH 8.0; EMSA 10 nM DNA, 30 min, gel at room temperature; BLI 800 nM protein, 30 C; details: protein: recombinant; tags: C-terminal His6 (pET-24b NheI/XhoI); chain copies: 2; label: 5' biotin on S27 strand; blunt
T12 sequence: T1 sequence with S102R, E117G

RefZ R102C-His6 = molecular target: T13, RefZ R102C-His6 (Bacillus subtilis 168, UniProt O34970 1-207, R102C); test: BLI; Kd within 2-fold of WT; 150 mM KCl, 10 mM Tris-HCl pH 8.0; EMSA 10 nM DNA, 30 min, gel at room temperature; BLI 800 nM protein, 30 C; details: protein: recombinant; tags: C-terminal His6 (pET-24b NheI/XhoI); chain copies: 2; label: 5' biotin on S27 strand; blunt
T13 sequence: T1 sequence with S102C

RefZ E53K-His6 = molecular target: T14, RefZ E53K-His6 (Bacillus subtilis 168, UniProt O34970 1-207, E53K); test: as above; details: protein: recombinant; tags: C-terminal His6 (pET-24b NheI/XhoI); chain copies: 2; label: 5' biotin on S27 strand; blunt
T14 sequence: T1 sequence with E53K, S102R

RefZ R102S-His6 = molecular target: T15, RefZ R102S-His6 (Bacillus subtilis 168, UniProt O34970 1-207, R102S); test: as above; details: protein: recombinant; tags: C-terminal His6 (pET-24b NheI/XhoI); chain copies: 2; label: 5' biotin on S27 strand; blunt
T15 sequence: T1 sequence

RefZ E179K-His6 = molecular target: T16, RefZ E179K-His6 (Bacillus subtilis 168, UniProt O34970 1-207, E179K); test: as above; details: protein: recombinant; tags: C-terminal His6 (pET-24b NheI/XhoI); chain copies: 2; label: 5' biotin on S27 strand; blunt
T16 sequence: T1 sequence with S102R, E179K

RefZ E61K-His6 = molecular target: T17, RefZ E61K-His6 (Bacillus subtilis 168, UniProt O34970 1-207, E61K); test: as above; details: protein: recombinant; tags: C-terminal His6 (pET-24b NheI/XhoI); chain copies: 2; label: 5' biotin on S27 strand; blunt
T17 sequence: T1 sequence with E61K, S102R

RefZ E117D-His6 = molecular target: T18, RefZ E117D-His6 (Bacillus subtilis 168, UniProt O34970 1-207, E117D); test: as above; details: protein: recombinant; tags: C-terminal His6 (pET-24b NheI/XhoI); chain copies: 2; label: 5' biotin on S27 strand; blunt
T18 sequence: T1 sequence with S102R, E117D

RefZ R116S-His6 = molecular target: T19, RefZ R116S-His6 (Bacillus subtilis 168, UniProt O34970 1-207, R116S); test: as above; details: protein: recombinant; tags: C-terminal His6 (pET-24b NheI/XhoI); chain copies: 2; label: 5' biotin on S27 strand; blunt
T19 sequence: T1 sequence with S102R, R116S

RefZ-His6 (WT) = molecular target: T20, RefZ-His6 (WT) (Bacillus subtilis PY79, UniProt O34970 1-207); test: BLI; Kd value only in Fig. 6 image; reference; 150 mM KCl, 10 mM Tris-HCl pH 8.0; EMSA 10 nM DNA, 30 min, gel at room temperature; BLI 800 nM protein, 30 C; details: protein: recombinant; tags: C-terminal His6 (pET-24b NheI/XhoI); chain copies: 2; label: 5' biotin on S27 strand; blunt
T20 sequence: T1 sequence with S102R

For “ATCAGCGCTCTGGTGATTGCAAGCTGCTGCTGTTGACCGCCTTTTCGTTTTGAACAAACGTTTGATTAAAACAAATAGCCCCCTCTGTTTAGCCGGAGTCGGCCTAATACAGCGACAATCTGCCCCGGGCGAAGCTAAGGCTGTGCAAAA (double strand) [RBML1 150-bp probe]”, the binding [1] was “binds”, the binding [2] was “binds” and the binding [3] was “binds”. The binding [4] was “binds”, the binding [5] was “binds” and the binding [6] was “binds more weakly”. The binding [7] was “binds”, the binding [8] was “binds” and the binding [9] was “binds”. For the same molecule, the binding [10] was “binds” and the binding [11] was “binds”.

Work on “RefZ-His6 (wild-type RefZ) (natural protein)” yielded a stoichiometry N [12] of 2.

B1: RBML1 41-bp (dsDNA)
DNA 1: GCCTTTTCGTTTTGAACAAACGTTTGATTAAAACAAATAGC
DNA 2: GCTATTTGTTTTAATCAAACGTTTGTTCAAAACGAAAAGGC
B1: binds (RefZ E117G-His6); binds (RefZ R102C-His6); binds (RefZ E53K-His6). B1: binds (RefZ R102S-His6); binds (RefZ E179K-His6); binds (RefZ E61K-His6). B1: binds (RefZ E117D-His6); binds (RefZ R116S-His6); binds (RefZ-His6 (WT)).
